Assay results as given in FireProtDB (doi:10.1002/pro.5560041213).

B1: High-potential iron-sulfur protein isozyme 1, P04168 (parent)
chain: EPRAEDGHAHDYVNEAADASGHPRYQEGQLCENCAFWGEAVQDGWGRCTHPDFDEVLVKAEGWCSVYAPAS

Variants of: B1
Conditions: Halorhodospira halophila, Thermal, DSC, reversible: yes, structure 2HIP, whole UniProt chain shown

Variant | Tm (pH 9, TAPS 20 mM) [°C] | Tm (pH 10, CAPS 20 mM) [°C] | Tm (pH 10.8, CHES 20 mM) [°C] | Tm (pH 7, MOPS 20 mM) [°C]
EPRAEDGHAHDFVNEAADASGHPRYQEGQLCENCAFWGEAVQDGWGRCTHPDFDEVLVKAEGWCSVYAPAS | 54.4 | 54.2 | 37.1 | –
EPRAEDGHAHDWVNEAADASGHPRYQEGQLCENCAFWGEAVQDGWGRCTHPDFDEVLVKAEGWCSVYAPAS | – | – | – | 37.4
EPRAEDGHAHDHVNEAADASGHPRYQEGQLCENCAFWGEAVQDGWGRCTHPDFDEVLVKAEGWCSVYAPAS | 39 | – | – | 42.2
